Source: ChEMBL document CHEMBL2074521, “Partial purification and reconstitution of the human multidrug-resistance pump: characterization of the drug-stimulatable ATP hydrolysis” (Proc Natl Acad Sci U S A, 1992)

Tested on: COc1cc2c(c(OC)c1OC)-c1ccc(OC)c(=O)cc1[C@@H](NC(C)=O)CC2
Assay: TP_TRANSPORTER: ATP hydrolysis in reconstituted proteoliposomes
Assay type: functional, subcellular

**Q.** With “ATP-dependent translocase ABCB1 (Homo sapiens)” as the substance, how does the Km read?
**A.** Its Km is 45 µM.
